Key:
Assay in all cases: Mass spectroscopy proteomics, semi-quantitative binding affinity of serum proteins (plaqueproteome, Table 2)
Conditions in all cases: higher number = stronger affinity
[1] = system: High Density cholesterol (Chl Large) plaque particles; set-up: species or system human
Summary of the method: (§1)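 Serum or plasma from atherosclerotic subjects, diluted to 50% in PBS, was incubated with cholesterol aggregates (30 μg per 1 mL reaction) at 37° C for 1 hr. Small and large cholesterol plaque particles were sorted by flow cytometry gating, trypsin-digested and analysed by MS/MS against a human UniProt database.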

[2] = system: Low density cholesterol (Chl small) plaque particles; set-up: species or system human
Summary of the method: as §1

Tau plaque particles = system: Tau plaque particles; set-up: species or system human
Summary of the method: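 Synthetic Tau-74 and Tau-275 peptides (1 mg/mL PBS, 37° C, 2 h) aggregated; 30 μg aggregates incubated with 50% serum/plasma 1 h at 37° C, stained with Thioflavin S, and plaque particles sorted by flow cytometry. Bound proteins trypsin-digested and identified by MS/MS against human UniProt.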

[3] = molecular target: T1, Abeta-42 plaque particles (Homo sapiens, UniProt P05067)
T1 construct: Abeta 1-42
Summary of the method: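 AD patient serum or plasma (50% in PBS) was incubated with Abeta-42 aggregates (30 μg) for 1 h at 37 °C, then stained with Thioflavin S for 30 min. Labeled particles were FACS-sorted, trypsin/Lys-C digested overnight and analyzed by MS/MS. Sequest searched human UniProt; Scaffold/Protein Prophet validated the identifications.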

[4] = molecular target: T2, alpha-synuclein plaque particles (Homo sapiens, UniProt P37840)
T2 construct: 140 amino acids polypeptide
Summary of the method: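 AD-subject plasma or serum (800 μL of 50%) mixed with 30 μg preformed alpha-synuclein aggregates for 1 h at 37 °C; Thioflavin S-positive particles isolated by flow sorting. After reduction, acrylamide alkylation and overnight tryptic digestion, serum proteins identified by MS/MS with Sequest and Scaffold.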

| Molecule | Semi-quantitative analysis of proteins binding to different plaque particles: Chl Large [1] | Semi-quantitative analysis of proteins binding to different plaque particles: Chl small [2] | Semi-quantitative analysis of proteins binding to different plaque particles: Tau (Tau plaque particles) | Semi-quantitative analysis of proteins binding to different plaque particles: Abeta-42 [3] | Semi-quantitative analysis of proteins binding to different plaque particles: Synuclein [4] |
| --- | --- | --- | --- | --- | --- |
| Ig heavy chain V-I region HG3 (protein) QVQLVQSGAEVKKPGASVKVSCKASGYTFTSYYMHWVRQAPGQGLEWMGIINPSGGSTSYAQKFQGRVTMTRDTSTSTVYMELSSLRSEDTAVYYCAR | 1 | 1 | 1 | 2 | 2 |
| Complement factor H-related protein 1 (protein) EATFCDFPKINHGILYDEEKYKPFSQVPTGEVFYYSCEYNFVSPSKSFWTRITCTEEGWSPTPKCLRLCFFPFVENGHSESSGQTHLEGDTVQIICNTGYRLQNNENNISCVERGWSTPPKCRSTDTSCVNPPTVQNAHILSRQMSKYPSGERVRYECRSPYEMFGDEEVMCLNGNWTEPPQCKDSTGKCGPPPPIDNGDITSFPLSVYAPASSVEYQCQNLYQLEGNKRITCRNGQWSEPPKCLHPCVISREIMENYNIALRWTAKQKLYLRTGESAEFVCKRGYRLSSRSHTLRTTCWDGKLEYPTCAKR | 2 | 1 | 1 | 0 | 0 |
| Isoform 2 of Arginase-1 (protein) MSAKSRTIGIIGAPFSKGQPRGGVEEGPTVLRKAGLLEKLKEQVTQNFLILECDVKDYGDLPFADIPNDSPFQIVKNPRSVGKASEQLAGKVAEVKKNGRISLVLGGDHSLAIGSISGHARVHPDLGVIWVDAHTDINTPLTTTSGNLHGQPVSFLLKELKGKIPDVPGFSWVTPCISAKDIVYIGLRDVDPGEHYILKTLGIKYFSMTEVDRLGIGKVMEETLSYLLGRKKRPIHLSFDVDGLDPSFTPATGTPVVGGLTYREGLYITEEIYKTGLLSGLDIMEVNPSLGKTPEEVTRTVNTAVAITLACFGLAREGNHKPIDYLNPPK | 0 | 0 | 0 | 2 | 0 |
| Coagulation factor XIII B chain (protein) EEKPCGFPHVENGRIAQYYYTFKSFYFPMSIDKKLSFFCLAGYTTESGRQEEQTTCTTEGWSPEPRCFKKCTKPDLSNGYISDVKLLYKIQENMRYGCASGYKTTGGKDEEVVQCLSDGWSSQPTCRKEHETCLAPELYNGNYSTTQKTFKVKDKVQYECATGYYTAGGKKTEEVECLTYGWSLTPKCTKLKCSSLRLIENGYFHPVKQTYEEGDVVQFFCHENYYLSGSDLIQCYNFGWYPESPVCEGRRNRCPPPPLPINSKIQTHSTTYRHGEIVHIECELNFEIHGSAEIRCEDGKWTEPPKCIEGQEKVACEEPPFIENGAANLHSKIYYNGDKVTYACKSGYLLHGSNEITCNRGKWTLPPECVENNENCKHPPVVMNGAVADGILASYATGSSVEYRCNEYYLLRGSKISRCEQGKWSSPPVCLEPCTVNVDYMNRNNIEMKWKYEGKVLHGDLIDFVCKQGYDLSPLTPLSELSVQCNRGEVKYPLCTRKESKGMCTSPPLIKHGVIISSTVDTYENGSSVEYRCFDHHFLEGSREAYCLDGMWTTPPLCLEPCTLSFTEMEKNNLLLKWDFDNRPHILHGEYIEFICRGDTYPAELYITGSILRMQCDRGQLKYPRCIPRQSTLSYQEPLRT | 0 | 1 | 0 | 0 | 0 |
| Caspase-14 (protein) MSNPRSLEEEKYDMSGARLALILCVTKAREGSEEDLDALEHMFRQLRFESTMKRDPTAEQFQEELEKFQQAIDSREDPVSCAFVVLMAHGREGFLKGEDGEMVKLENLFEALNNKNCQALRAKPKVYIIQACRGEQRDPGETVGGDEIVMVIKDSPQTIPTYTDALHVYSTVEGYIAYRHDQKGSCFIQTLVDVFTKRKGHILELLTEVTRRMAEAELVQEGKARKTNPEIQSTLRKRLYLQ | 0 | 0 | 0 | 5 | 0 |
| Galectin-3-binding protein (protein) VNDGDMRLADGGATNQGRVEIFYRGQWGTVCDNLWDLTDASVVCRALGFENATQALGRAAFGQGSGPIMLDEVQCTGTEASLADCKSLGWLKSNCRHERDAGVVCTNETRSTHTLDLSRELSEALGQIFDSQRGCDLSISVNVQGEDALGFCGHTVILTANLEAQALWKEPGSNVTMSVDAECVPMVRDLLRYFYSRRIDITLSSVKCFHKLASAYGARQLQGYCASLFAILLPQDPSFQMPLDLYAYAVATGDALLEKLCLQFLAWNFEALTQAEAWPSVPTDLLQLLLPRSDLAVPSELALLKAVDTWSWGERASHEEVEGLVEKIRFPMMLPEELFELQFNLSLYWSHEALFQKKTLQALEFHTVPFQLLARYKGLNLTEDTYKPRIYTSPTWSAFVTDSSWSARKSQLVYQSRRGPLVKYSSDYFQAPSDYRYYPYQSFQTPQHPSFLFQDKRVSWSLVYLPTIQSCWNYGFSCSSDELPVLGLTKSGGSDRTIAYENKALMLCEGLFVADVTDFEGWKAAIPSALDTNSSKSTSSFPCPAGHFNGFRTVIRPFYLTNSSGVD | 1 | 0 | 0 | 0 | 0 |
| Ig kappa chain V-I region BAN (protein) DIQMTQSPSSLSASVGDRVTITCRASQGISNYLAWFQQKPGKAPKSLIYAASSLQSGVPSKFSGSGSGTDFTLTISSLQPEDFATYYCQQYNSYP | 2 | 1 | 2 | 2 | 1 |
| Isoform 1B of Desmocollin-1 (protein) RWAPIPASLMENSLGPFPQHVQQIQSDAAQNYTIFYSISGPGVDKEPFNLFYIEKDTGDIFCTRSIDREKYEQFALYGYATTADGYAPEYPLPLIIKIEDDNDNAPYFEHRVTIFTVPENCRSGTSVGKVTATDLDEPDTLHTRLKYKILQQIPDHPKHFSIHPDTGVITTTTPFLDREKCDTYQLIMEVRDMGGQPFGLFNTGTITISLEDENDNPPSFTETSYVTEVEENRIDVEILRMKVQDQDLPNTPHSKAVYKILQGNENGNFIISTDPNTNEGVLCVVKPLNYEVNRQVILQVGVINEAQFSKAASSQTPTMCTTTVTVKIIDSDEGPECHPPVKVIQSQDGFPAGQELLGYKALDPEISSGEGLRYQKLGDEDNWFEINQHTGDLRTLKVLDRESKFVKNNQYNISVVAVDAVGRSCTGTLVVHLDDYNDHAPQIDKEVTICQNNEDFAVLKPVDPDGPENGPPFQFFLDNSASKNWNIEEKDGKTAILRQRQNLDYNYYSVPIQIKDRHGLVATHMLTVRVCDCSTPSECRMKDKSTRDVRPNVILGRWAILAMVLGSVLLLCILFTCFCVTAKRTVKKCFPEDIAQQNLIVSNTEGPGEEVTEANIRLPMQTSNICDTSMSVGTVGGQGIKTQQSFEMVKGGYTLDSNKGGGHQTLESVKGVGQGDTGRYAYTDWQSFTQPRLGEESIRGHTLIKN | 0 | 0 | 0 | 4 | 0 |
| Histone H1.3 (protein) SETAPLAPTIPAPAEKTPVKKKAKKAGATAGKRKASGPPVSELITKAVAASKERSGVSLAALKKALAAAGYDVEKNNSRIKLGLKSLVSKGTLVQTKGTGASGSFKLNKKAASGEGKPKAKKAGAAKPRKPAGAAKKPKKVAGAATPKKSIKKTPKKVKKPATAAGTKKVAKSAKKVKTPQPKKAAKSPAKAKAPKPKAAKPKSGKPKVTKAKKAAPKKK | 0 | 0 | 0 | 2 | 0 |

— US9618524B2, “Method, composition, isolation and identification of a plaque particle and related biomarker” (Plaxgen Inc., priority 2012, dated 2017)
